Measurements from US20040033534A1 (WISCONSIN ALUMNI RESEARCH FOUNDATION, published 2004).
Positions of bridges follow the written chain, without caps; N, C: chain ends. No end group written: not given here.

Tests used:
[1] = molecular target: PhoB (complete PhoB sequence)
[2] = molecular target: T1, VanR~P (phosphorylated VanR) (Enterococcus faecium, UniProt Q06239 1-231, phosphorylated with acetyl phosphate; Asp-55 is named as the residue that accepts the phosphoryl group); assay: cell-based or functional assay
[3] = molecular target: T1, VanR~P (phosphorylated VanR); assay: not stated (comparison of VanR and VanR˜P; reference is unphosphorylated VanR)

T1 sequence (Q06239 whole entry): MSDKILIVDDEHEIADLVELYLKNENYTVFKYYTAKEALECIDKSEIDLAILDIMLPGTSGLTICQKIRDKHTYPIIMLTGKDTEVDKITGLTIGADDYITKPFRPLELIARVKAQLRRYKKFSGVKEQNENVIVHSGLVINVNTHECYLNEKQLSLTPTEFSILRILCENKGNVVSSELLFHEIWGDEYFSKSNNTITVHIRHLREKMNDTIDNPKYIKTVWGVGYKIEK

B1: GST-VanSc (Arg-93-TAA-283 stop) (protein)
chain: RVMLSKFAKYFDEINTGIDVLIQNEDKQIELSAEMDVMEQKLNTLKRTLEKREQDAKLAEQRKNDVVMYLAHDIKTPLTSIIGYLSLLDEAPDMPVDQKAKYVHITLDKAYRLEQLIDEFFEITRYNLQTITLTKTHIDLYYMLVQMTDEFYPQLSAHGKQAVIHAPEDLTVSGDPDKLARVFNNILKNAA
For B1, the “phosphoryl transfer from VanS˜P to PhoB” value [1] was “VanS˜P was incubated with PhoB, and phosphoryl transfer was assessed”.

For SLAHDSIIGYLS [peptide SEQ ID NO. 2], the “IC50 for inhibiting VanR˜P binding to [32P] PVanH (gel shift), relative to SEQ ID NO. 1” value [2] was 10 fold.

In the case of SLCHDSVIGWEC (disulfide 3-12 (inferred), also called Peptide E12) [dodecamer peptide SEQ ID NO. 1], the “fold difference between binding to VanR and binding to VanR˜P” value [3] is reported as greater than 100 fold.
